Numbering of substitutions follows the chain as printed. In names and notes the source's numbering stands.

The text below walks through data of publication PMC5934667 (Nucleic Acids Research, 2018).

Data set [1] concerns the molecule itself. In words: negative-stain EM, helical reconstruction.
Another data set has as its target RecA (bacterial, UniProt P0A7G6 1-353). Nature of the data set: stopped-flow Cy3 fluorescence.
In data set [2] the target is T1, RAD51 KA (human, UniProt Q06609 1-339, K133A). Nature of the data set: stopped-flow Cy3 fluorescence.
The target of data set [3] is T2, RAD51 KR (human, UniProt Q06609 1-339, K133R). In words: stopped-flow Cy3 fluorescence.
The target of data set [4] is T1, RAD51 KA. In words: EMSA.
Data set [5] has as its target T2, RAD51 KR. In words: EMSA. Background: A gel shift assay detects complexes by their altered migration in electrophoresis.
Data set [6] addresses T3, RAD51 WT (human, UniProt Q06609 1-339). In words: EMSA.
Data set [7] addresses T3, RAD51 WT. In words: nuclease protection.
Data set [8] concerns the target T1, RAD51 KA. Nature of the data set: nuclease protection.
The target of data set [9] is T2, RAD51 KR. Nature of the data set: nuclease protection.

RecA, sequence (P0A7G6 whole entry): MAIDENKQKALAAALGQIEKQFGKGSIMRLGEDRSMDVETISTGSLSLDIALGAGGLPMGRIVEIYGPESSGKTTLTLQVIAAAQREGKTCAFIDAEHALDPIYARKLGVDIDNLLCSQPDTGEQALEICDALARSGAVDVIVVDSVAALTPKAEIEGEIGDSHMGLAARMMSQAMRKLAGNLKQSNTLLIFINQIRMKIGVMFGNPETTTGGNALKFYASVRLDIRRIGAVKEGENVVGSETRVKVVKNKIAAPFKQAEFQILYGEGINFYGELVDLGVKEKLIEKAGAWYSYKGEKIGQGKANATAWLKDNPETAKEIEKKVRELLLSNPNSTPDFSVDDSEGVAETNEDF

B1: Human RAD51 K133R (natural protein)
chain: MAMQMQLEANADTSVEEESFGPQPISRLEQCGINANDVKKLEEAGFHTVEAVAYAPKKELINIKGISEAKADKILAEAAKLVPMGFTTATEFHQRRSEIIQITTGSKELDKLLQGGIETGSITEMFGEFRTGRTQICHTLAVTCQLPIDRGGGEGKAMYIDTEGTFRPERLLAVAERYGLSGSDVLDNVAYARAFNTDHQTQLLYQASAMMVESRYALLIVDSATALYRTDYSGRGELSARQMHLARFLRMLLRLADEFGVAVVITNQVVAQVDGAAMFAADPKKPIGGNIIAHASTTRLYLRKGRGETRICKIYDSPCLPEAEAMFAINADGVGDAKD
In the case of B1, the binding result in [1] is reported as “binds”.

B2: Human RAD51 K133A (natural protein)
chain: B1 chain with R133A
B2: the binding result in data set [1] is listed as “binds”.

B3: 5'-Cy3-dT79 (ssDNA)
DNA: TTTTTTTTTTTTTTTTTTTTTTTTTTTTTTTTTTTTTTTTTTTTTTTTTTTTTTTTTTTTTTTTTTTTTTTTTTTTTTT
Broadly, the Kd is a measure of binding affinity in units of concentration. A higher Kd goes with lower affinity. Consider B3, for which the Kd in the data set with RecA was < 1.1 µM. Also, the binding result in the data set with RAD51 KA [2] and in the data set with RAD51 KR [3] was “binds” each time.

B4: 83-mer (ssDNA)
DNA: AAATGAACATAAAGTAAATAAGTATAAGGATAATACAAAATAAGTAAATGAATAAACATAGAAAATAAAGTAAAGGATATAAA
In the case of B4, the binding result with RAD51 KA [4], with RAD51 KR [5] and with RAD51 WT [6] was “binds” each time.

B5: 61-mer (ssDNA)
DNA: GACGCTGCCGAATTCTACCAGTGCCTTGCTAGGACATCTTTGCCCACCTGCAGGTTCACCC
With B5, the binding result in the data set with RAD51 WT [7], with RAD51 KA [8] and in the data set with RAD51 KR [9] was “binds” throughout.
